Test results from the supplement of paper PMC9170038.

System: MS2 coat protein
Assay: apparent KD of MS2 coat protein; designed switch direction (-1 OFF switch, 1 ON switch): 1; higher = weaker reporter binding
Summary of the method: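 Transcription of designed RNA switches on Illumina chips was done by stalled E. coli RNA polymerase. SNAP-549-labelled MS2 coat protein was then titrated in doubling steps from 0.7 or 1.5 nM to 3 µM, with steps of 0.8–1.5 h at the lowest and 10–20 min at the highest concentration. The per-design median over clusters of curve-fitted normalised fluorescence is reported as apparent KD.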

[1] = input ligand: microRNA oligo, concentration not stated
[2] = Eterna round: R95, input ligand: FMN 200 uM
[3] = Eterna round: R95, input ligand: microRNA oligo, concentration not stated
[4] = Eterna round: R95, input ligand: none

Sequence | apparent KD of MS2 coat protein (input ligand: FMN 200 uM) [nM] | apparent KD of MS2 coat protein [1] [nM] | apparent KD of MS2 coat protein (input ligand: none) [nM] | apparent KD of MS2 coat protein [2] [nM] | apparent KD of MS2 coat protein [3] [nM] | apparent KD of MS2 coat protein [4] [nM]
GUACUCAUGUAAGGAUAUGCAGCCGUUUCGGCUGCAGAAGGUACUAUAAUACAUGAGGAUCACCCAUGUCUCUAUAAUUUGGUG [salish99_SSNG1_r04_902] (Eterna round: R96, puzzle: Same State NG 1) | 177 | 62.4 | 132 | – | – | –
GUAGCAUACCGAGGAUAUUCAAAUUAACAUGAGGAUCACCCAUGUAGGCCACAUUAGUGGCCUUGGGAGAAGGCGGAAUGCUAC [Xeonanis - 20 Mod39] (Eterna round: R96, puzzle: Same State NG 2) | 13.3 | 43.1 | 60.7 | – | – | –
GUAGCAUGCAGGCAGGAUAUUCAUAUUAAAACAUGAGGAUCACCCAUGUAGGCCGAAAGGCCUUGGGAGAAGGGCCACAUGCUAC [Xeonanis - 18] (Eterna round: R96, puzzle: Same State 2) | 36.8 | 429 | 704 | – | – | –
GUAGCAUGCAGGCAGGAUAUUCAUAUUAAAACAUGAGGAUCACCCAUGUAGGCCGAAAGGCCUUGGGAGAAGGGCCACAUGCUAC [Xeonanis - 18] (puzzle: Same State 2) | – | – | – | 34.3 | 453 | 1020
GUAUCUACAGGUUGCGAUGCUCGUCUGAUACAUGAGGAUCACCCAUGUUAUAGCCCUGUGCUUGCGCAGGGCUGAUU [Sensor for hsa-mir-208a ( MOD of Tearor v.2 )] (Eterna round: R96, puzzle: Sensor for hsa-mir-208a) | 105 | 26.7 | 84.6 | – | – | –
GUAUCUACAGGUUGCGAUGCUCGUCUGAUACAUGAGGAUCACCCAUGUUAUAGCCCUGUGCUUGCGCAGGGCUGAUU [Sensor for hsa-mir-208a ( MOD of Tearor v.2 )] (puzzle: Sensor for hsa-mir-208a) | – | – | – | 136 | 33.4 | 116
GUCCAACAUGAGGAUCACCCAUGUCGGGCGUGCACAGGAUAUCGCGCCGGGAAAGACCAGCGAGAAGGGUGAUCGA [Leriqu] (puzzle: Same State 1) | – | – | – | 139 | 51.4 | 57.5
GUCGGUCUGUCGUGCUGAGGUGAUAGUUAACAUGAGGAUCACCCAUGUUGCUGUCGGGUCGUUGGGAGUUUUCUUCG [Modxample 118 - Jieux - Sensor for bsa-mir-208a] (Eterna round: R96, puzzle: Sensor for hsa-mir-208a) | 19.1 | 15.4 | 22.5 | – | – | –
GUGAAGAAUUAAGGAUAUCGAGUCAAGAUGUUAAACAUGAGGAUCACCCAUGUGGGUUGCGGUAUCGAGAAGGUAAAUUACGGG [salish99_SSNG2_r04_503] (Eterna round: R96, puzzle: Same State NG 2) | 34.6 | 27.6 | 33.2 | – | – | –
GUGCUACAUGAGGAUCACCCAUGUACAAAUGUACGAGGAUAUGCAUGGGCUAAUGCUGGUGCAGAAGGCGUAGCGC [Pin2Pin #7] (puzzle: Same State 1) | – | – | – | 18 | 33.9 | 41.5
GUGGCGGGUUGAGGAUAUUGGUUGCAUAUGUUUAACAUGAGGAUCACCCAUGUGGGUUGCGGUUUCGAGAAGGUAGGUUGCUGG [salish99_SSNG2_r04_044] (Eterna round: R96, puzzle: Same State NG 2) | 155 | 95.3 | 140 | – | – | –
GUGGUCAGACAUGAGGAUCACCCAUGUGGAAUAAAUAACACACAGGAUAUCCAAUAUAAAAUAUAGGAGAAGGGUGGAUUGGUG (Eterna round: R96, puzzle: Same State NG 3) | – | 176 | – | – | – | –
GUGGUCAGACAUGAGGAUCACCCAUGUGGAAUAAAUAACAGACAGGAUAUGUAAUAUAGGAUAUAACAGAAGGGUCGAUUGGUG (Eterna round: R96, puzzle: Same State NG 3) | – | 64.4 | – | – | – | –
GUGGUCAGACAUGAGGAUCACCCAUGUGGAAUAAAUAACAGACAGGAUAUUAAAUAUAGGAUAUAUAAGAAGGGUCGAUUGGUG (Eterna round: R96, puzzle: Same State NG 3) | – | 78.5 | – | – | – | –
GUGGUCAGACAUGAGGAUCACCCAUGUGGAAUAAAUAACGGUGAGGAUAUUGAAUAUAGGAUAUACGAGAAGGCAUGAUUGGUG (Eterna round: R96, puzzle: Same State NG 3) | 208 | 114 | 123 | – | – | –
GUGGUCAGACAUGAGGAUCACCCAUGUGGAAUAAAUAAGGGACAGGAUAUCCAAUAUAGGAUAUAGGAGAAGGGUUGGUUGGUG (Eterna round: R96, puzzle: Same State NG 3) | 78.9 | 64.5 | 73.9 | – | – | –

Sequence | apparent KD of MS2 coat protein (input ligand: FMN 200 uM) [nM] | apparent KD of MS2 coat protein [1] [nM] | apparent KD of MS2 coat protein (input ligand: none) [nM] | apparent KD of MS2 coat protein [2] [nM] | apparent KD of MS2 coat protein [3] [nM] | apparent KD of MS2 coat protein [4] [nM]
GUGGUCAGACAUGAGGAUCACCCAUGUGGAAUAAAUAAGGGAGAGGAUAUAUAAUAUAGGAUAUAAUAGAAGGCUCGGUUGGUG (Eterna round: R96, puzzle: Same State NG 3) | – | 89.5 | – | – | – | –
GUGGUCAGACAUGAGGAUCACCCAUGUGGAAUAAAUAAGGUCAAGGAUAUUGAAUAUAGGAUAUACAAGAAGGUGAGGUUGGUG (Eterna round: R96, puzzle: Same State NG 3) | 140 | 94.9 | 115 | – | – | –
GUGGUGAAUUAAGGAUAUCGAGUCUAGAUGUUAAACAUGAGGAUCACCCAUGUGGGUUGCGGUGUCGAGAAGGUGAUUUACGGG [salish99_SSNG2_r04_509] (Eterna round: R96, puzzle: Same State NG 2) | 82.2 | 79.6 | 104 | – | – | –
GUUAAACAUGAGGAUCACCCAUGUAAUAUAAUGGGAGGAUAUCUGAAUUAAUUAAAUUAAGGAGAAGGCCUAAUGG [Mat - Same State 1 - Mod of Eli - D51] (puzzle: Same State 1) | – | – | – | 83.3 | 481 | 608
GUUACAUGAGGAUCACCCAUGUAUGUGUGGGAGUAAGUGACUUAGGAUAUCUAAUAUUUAAAUUAAGAGAAGGAAGAUUGUUGU [JMF's solution 5] (Eterna round: R96, puzzle: Same State NG 3) | 266 | 131 | 202 | – | – | –
GUUACAUGAGGAUCACCCAUGUAUGUGUGGGAGUAAGUGUCUUAGGAUAUCUAUCAUUUAAGUUAAGAGAAGGAAGAUUGUUGU [JMF's solution 95] (Eterna round: R96, puzzle: Same State NG 3) | 135 | 80.4 | 108 | – | – | –
GUUACAUGAGGAUCACCCAUGUAUGUGUGGGAGUAAGUGUCUUAGGAUAUCUAUCAUUUAAUUGAAGAGAAGGAAGAUUGUUGU [JMF's solution 99] (Eterna round: R96, puzzle: Same State NG 3) | 140 | 71.2 | 113 | – | – | –
GUUAGGAAUCUAGCACACAUGAGGAUCACCCAUGUUAGUGGGAAGGAUAUGGUACAGAAACUGUACCAGAAGGUCUUAUUGUUU [Omei SS(NG) 3 AV14] (Eterna round: R96, puzzle: Same State NG 3) | 93.8 | 67.6 | 142 | – | – | –
GUUUGACAUGAGGAUCACCCAUGUCAUACGGACACAGGAUAUCGUGGCCUGAAGCCGUCAUGAGAAGGGUGACCAA [Ceaza] (puzzle: Same State 1) | – | – | – | 33.8 | 14.3 | 12.5
UAAAUACAUGAGGAUCACCCAUGUCAAAAGACAUGAGGAUAUGUACAGUCUUCGGUCUGUACAGAAGGCAUGAAUA [salish99_ss1_r3_097] (Eterna round: R96, puzzle: Same State 1) | 52.1 | 370 | 461 | – | – | –
UAAAUACAUGAGGAUCACCCAUGUCAAAAGACAUGAGGAUAUGUACAGUCUUCGGUCUGUACAGAAGGCAUGAAUA [salish99_ss1_r3_097] (puzzle: Same State 1) | – | – | – | – | 434 | –
UACGCGAGAGGAGGAUAUGCAGAGGAUCACCCUGUAGAAGGCCUCAUAAGGAGGAUAUGCAGAGGAUCACCCUGUAGAAGGCCU [pwkr ssNG DX.22] (Eterna round: R96, puzzle: Same State NG 1) | 345 | 67.9 | 129 | – | – | –
UACUGAGUCGUAGGAUAUGUAGGAUAUGGCGAGAGCUAAGCUUGGAAGUCACUUCUGCCAGAAGGACAGAAGGACGACUCUCUC [pwkr ssNG2 2FMN + F9.14] (Eterna round: R96, puzzle: Same State NG 2) | 705 | 237 | 55.5 | – | – | –
UACUUGGUGGUAGGAUAUGUAGGAUAUGGCGAGAGCUAAGCUUGGAAGUCACUUCAGCCAGAAGGACAGAAGGACCAGUAUCUC [pwkr ssNG2 2FMN + F9.11] (Eterna round: R96, puzzle: Same State NG 2) | 1450 | 11.5 | 81.6 | – | – | –
UAGAAACAUGAGGAUCACCCAUGUGGGUUAAACACAGGAUAUCACACCAAACGAAAGGCGUGAGAAGGGUGACCGU [Xeonreais] (puzzle: Same State 1) | – | – | – | 62 | 41.2 | 39.1
UAGAUUCACGUAGGAUAUCGACCUACAUGAGGAUCACCCAUGUUUUUGAAUAGAUUUUUUAGUUACGAGAAGGACGUUAUGUAU [JR_SSNG2_Sub063] (Eterna round: R96, puzzle: Same State NG 2) | 96 | 210 | 473 | – | – | –
